For test [1], the target named is T1, MAP tag peptide (14-residue) (Mus musculus).
T1 construct: 14-residue MAP tag derived from mouse podoplanin; also called MAP14 peptide; MAP peptide; source: synthetic peptide; also conjugated to Sepharose
T1 chain: GDGMVPPGIEDKIT
The test can be described thus: pull-down; purified Fv-clasp samples mixed with MAP14 peptide-conjugated Sepharose, 1 h at room temperature; washed three times with TBS (20 mM Tris pH 7.5, 150 mM NaCl); 15% SDS-PAGE, Coomassie. Conditions: both partners purified.

Test [2] addresses T2, Fn10-nMAP8 (Mus musculus (MAP tag), chimera).
T2 construct: MAP8 tag, the N-terminal 8 residues of the MAP tag derived from mouse podoplanin, at the N-terminus; tenth fibronectin type III domain (Fn10) of human fibronectin, residues 1417-1509; disulphide-linked dimer via the Fc; also called N-terminally MAP-tagged Fn10-Fc; source: Expi293F, transiently transfected, culture supernatant
T2 chain: GDGMVPPG
Description: pull-down; PMab-1 immobilised on Sepharose; culture supernatants of transfected Expi293F cells; washed three times with TBS; 12.5% non-reducing SDS-PAGE, Coomassie. Conditions: one partner purified.

For test [3], the target named is T3, Fn10-nMAP14 (Mus musculus (MAP tag), chimera).
T3 construct: original 14-residue MAP tag derived from mouse podoplanin, at the N-terminus; tenth fibronectin type III domain (Fn10) of human fibronectin, residues 1417-1509; disulphide-linked dimer via the Fc; also called N-terminally MAP-tagged Fn10-Fc; source: Expi293F, transiently transfected, culture supernatant
T3 chain: GDGMVPPGIEDKIT
Described as above. The note with it: one partner purified.

The target in test [4] is T4, Fn10-iFG-G (mouse podoplanin MAP8 tag (carried in …, chimera)).
T4 construct: Fn10 of human fibronectin up to Gly1494 of the FG loop; extra Gly residue(s) before the tag; MAP8 tag, derived from mouse podoplanin; extra Gly residue(s) after the tag; Fn10 of human fibronectin from Ser1496; As Fn10-iFG with the inserted MAP8 flanked by extra Gly residues at both ends; source: Expi293F, transiently transfected, culture supernatant
T4 chain: GDGMVPPG
The description is as above. Conditions: one partner purified.

B1: PMab-1(QQ) Fv-clasp (other, rat | human)
VH: QIQLQQSGTVLVKPASSVKISCKASGYSFTSHYMHWIRQQPGQGLEWIGWISPEQGNTKYNQKFDGKATLTADKSSSIAYMQLSSLTSEDSAVYFCVSWEDWSAYWGQGTLVTVCS
VL: DIVLTQSPALTVSLGQRATISCKTNQNVDYYGNSYVHWYQQKPGQKPKLLIYLASNLASGIPARFSGRGSGTDFTLTIDPVEAADTATYYCQQSRDLPNTFGAGTKLELK
notes: VH domain of rat anti-MAP monoclonal antibody PMab-1; SARAH domain of human Mst1 (anti-parallel coiled coil of the Fv-clasp format); VL domain (kappa) of rat anti-MAP monoclonal antibody PMab-1; SARAH domain of human Mst1 with S37C; Fv-clasp(v2) format, non-tagged version; also called PMab-1(QQ) Fv-clasp mutant; PMab-1VH(S112C)-SARAH with N43Q and N54Q + PMab-1VL-SARAH(S37C)
On to B1, for which the binding result in test [1] is “binds”.

B2: PMab-1 Fv-clasp (other, rat | human)
VH: QIQLQQSGTVLVKPASSVKISCKASGYSFTSHYMHWIRQQPGNGLEWIGWISPENGNTKYNQKFDGKATLTADKSSSIAYMQLSSLTSEDSAVYFCVSWEDWSAYWGQGTLVTVCS
VL: DIVLTQSPALTVSLGQRATISCKTNQNVDYYGNSYVHWYQQKPGQKPKLLIYLASNLASGIPARFSGRGSGTDFTLTIDPVEAADTATYYCQQSRDLPNTFGAGTKLELK
notes: VH domain of PMab-1 with S112C; as the VH of m1 (PDB 6lz4, VH-SARAH chain) but with Asn at 43 and 54 instead of the Gln of the entry; C112 is already in the entry; SARAH domain of human Mst1; VL domain (kappa) of PMab-1; as the VL of m1 (PDB 6lz4, VL-SARAH chain); SARAH domain of human Mst1 with S37C; as in the VL-SARAH chain of m1 (PDB 6lz4), which already holds the Cys; Parent of m1, without …
Regarding B2, the binding result in test [1] is reported as “binds”.

B3: PMab-1, rat anti-MAP monoclonal antibody (IgG2a, kappa) (antibody, V domains shown)
VH: QIQLQQSGTVLVKPASSVKISCKASGYSFTSHYMHWIRQQPGNGLEWIGWISPENGNTKYNQKFDGKATLTADKSSSIAYMQLSSLTSEDSAVYFCVSWEDWSAYWGQGTLVTVSS
VL: DIVLTQSPALTVSLGQRATISCKTNQNVDYYGNSYVHWYQQKPGQKPKLLIYLASNLASGIPARFSGRGSGTDFTLTIDPVEAADTATYYCQQSRDLPNTFGAGTKLELK
notes: VH of PMab-1; as the VH of m1 (PDB 6lz4, VH-SARAH chain) but with Asn43, Asn54 and Ser112 of the parent antibody; constant region of rat IgG2a heavy chain; VL of PMab-1; as the VL of m1 (PDB 6lz4, VL-SARAH chain); constant region of rat kappa light chain; Whole antibody; immobilised on Sepharose for pull-downs, used at 1.0 ug/ml in flow cytometry; copies: 2 + 2
For B3, the binding result in test [2], in test [3] and in test [4] was “binds” in each case.

(Values after publication PMC7585734, “Site-specific epitope insertion into recombinant proteins using the MAP tag system” (Journal of Biochemistry, 2020).)
